# Columns and labels:
# murine EphrinB2-His = target: T1, murine EphrinB2-His (murine, UniProt P52800 29-232, limits assumed); assay: SPR BIAcore-3000, antibody coupled to CM5 chip (~500 RU), EphrinB2-His injected, 25 C
# T1 construct: Soluble His-tagged protein; also called His-tagged murine EphrinB2; murine antigen; not shown: His tag
# Description: (§1) To determine the binding affinity of mouse anti-ephrinB2 Mabs, surface plasmon resonance (SRP) measurement with a BIAcore™-3000 was used (BIAcore, Inc., Piscataway, N.J.). Briefly, carboxymethylated dextran biosensor chips (CMS, BIAcore Inc.) were activated with N-ethyl-N′- (3-dimethylaminopropyl)-carbodiimide hydrochloride (EDC) and N-hydroxysuccinimide (NHS) according to the supplier's instructions. Anti-EphrinB2 antibody was diluted with 10 mM sodium acetate, pH 4.8, into 5 ug/ml before injection at a flow rate of 5 ul/minute to achieve approximately 500 response units (RU) of coupled antibody. Next, 1M ethanolamine was injected to block unreacted groups. For kinetics measurements, two-fold serial dilutions of either human or murine EphrinB2-His molecules (0.7 nM to 500 nM) were injected in PBS with 0.05% Tween 20 at 25° C. at a flow rate of 25 ul/min. Association rates (kₒₙ) and dissociation rates (koff) were calculated using a simple one-to-one Langmuir binding model (BlAcore Evaluation Software version 3.2). The equilibrium dissociation constant (Kd) was calculated as the ratio koff/kₒₙ. “NA” signifies that the measurement was not performed.
# human EphrinB2-His = target: T2, human EphrinB2-His (human, UniProt P52799 28-229, limits assumed); assay: as above
# T2 construct: Soluble His-tagged protein; also called His-tagged human EphrinB2; hEphrinB2; not shown: His tag
# Description: as §1
# T2 sequence (P52799 28-229 limits assumed): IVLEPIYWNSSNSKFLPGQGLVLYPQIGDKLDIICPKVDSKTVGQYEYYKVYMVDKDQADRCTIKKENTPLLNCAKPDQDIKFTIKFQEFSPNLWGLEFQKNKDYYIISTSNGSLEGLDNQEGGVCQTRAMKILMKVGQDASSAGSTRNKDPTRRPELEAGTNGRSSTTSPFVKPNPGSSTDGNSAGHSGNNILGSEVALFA
# T1 sequence (P52800 29-232 limits assumed): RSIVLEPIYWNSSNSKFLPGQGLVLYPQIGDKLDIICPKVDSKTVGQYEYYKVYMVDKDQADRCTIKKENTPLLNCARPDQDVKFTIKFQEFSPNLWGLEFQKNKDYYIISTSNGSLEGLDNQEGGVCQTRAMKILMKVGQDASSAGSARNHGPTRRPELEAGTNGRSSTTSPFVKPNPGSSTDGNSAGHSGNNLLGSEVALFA
Binder,Kd (murine EphrinB2-His),Kd (human EphrinB2-His)
"anti-EphrinB2 monoclonal antibody clone 31.19 (antibody, V domains shown, Synthetic phage antibody on the humanized 4D5 framework; also called YW31.19; 31.19 antibody) VH: EVQLVESGGGLVQPGGSLRLSCAASGFTITGSWIHWVRQAPGKGLEWVAVIYPNNGATDYADSVKGRFTISADTSKNTAYLQMNSLRAEDTAVYYCARTSAWAQLGAMDYWGQGTLVT VL: DIQMTQSPSSLSASVGDRVTITCRASQDVSTAVAWYQQKPGKAPKLLIYSASFLYSGVPSRFSGSGSGTDFTLTISSLQPEDFATYYCQQSYTTPPTFGQGTKVEIKR",0.23 nM,5.2 nM
"anti-EphrinB2 monoclonal antibody clone 31.19.1D8 (antibody, V domains shown, also called YW31.19.1D8; 31.19.1D8 antibody) VH: EVQLVESGGGLVQPGGSLRLSCAASGFTITGSWIHWVRQAPGKGLEWVAVIYPNNGATDYADSVKGRFTISADTSKNTAYLQMNSLRAEDTAVYYCARTSAWAQLGAMDYWGQGTLVT VL: DIQMTQSPSSLSASVGDRVTITCRASQDVDSSLAWYQQKPGKAPKLLIYAASNLESGVPSRFSGSGSGTDFTLTISSLQPEDFATYYCQQSDDNPFTFGQGTKVEIKR",0.017 nM,0.07 nM
"anti-EphrinB2 monoclonal antibody clone 31.19.2D3 (antibody, V domains shown, also called YW31.19.2D3; 31.19.2D3 antibody) VH: EVQLVESGGGLVQPGGSLRLSCAASGFTVSSGWIHWVRQAPGKGLEWVAVIFHNKGGTDYADSVKGRFTISADTSKNTAYLQMNSLRAEDTAVYYCARTSAWAQLGAMDYWGQGTLVT VL: DIQMTQSPSSLSASVGDRVTITCRASQDVSTAVAWYQQKPGKAPKLLIYSASFLYSGVPSRFSGSGSGTDFTLTISSLQPEDFATYYCEQTDSTPPTFGQGTKVEIKR",0.015 nM,0.08 nM
